# Laboratory results as given in article PMC9071424, “Microarray screening reveals two non-conventional SUMO-binding modules linked to DNA repair by non-homologous end-joining” (Nucleic Acids Research, 2022).
# B1: 6×His-XRCC4^1–164 (C-to-A) (domain or fragment, human, UniProt Q13426 1-164, looked up)
# chain: MERKISRIHLVSEPSITHFLQVSWEKTLESGFVITLTDGHSAWTGTVSESEISQEADDMAMEKGKYVGELRKALLSGAGPADVYTFNFSKESAYFFFEKNLKDVSFRLGSFNLEKVENPAEVIRELIAYALDTIAENQAKNEHLQKENERLLRDWNDVQGRFEK
# modifications: 15N-labelled where it was the observed protein in NMR
# notes: pET-28a vector; also called XRCC4 head domain; not shown: 6×His, N-terminal, kept
# Molecular target: T1, XLF-6×His (human, UniProt Q9H9Q4 1-299)
# T1 construct: XLF (NHEJ1), human, amplified from pGEX2TKP-XLF and subcloned into pHAT5; source: E. coli BL21-CodonPlus (DE3)-RIL, purified (HP His-trap, HiTrap Q HP)
# Assay: BLI; XLF binding of XRCC4 1–164 and its mutants
# Details: both partners purified
# T1 sequence (Q9H9Q4 whole entry): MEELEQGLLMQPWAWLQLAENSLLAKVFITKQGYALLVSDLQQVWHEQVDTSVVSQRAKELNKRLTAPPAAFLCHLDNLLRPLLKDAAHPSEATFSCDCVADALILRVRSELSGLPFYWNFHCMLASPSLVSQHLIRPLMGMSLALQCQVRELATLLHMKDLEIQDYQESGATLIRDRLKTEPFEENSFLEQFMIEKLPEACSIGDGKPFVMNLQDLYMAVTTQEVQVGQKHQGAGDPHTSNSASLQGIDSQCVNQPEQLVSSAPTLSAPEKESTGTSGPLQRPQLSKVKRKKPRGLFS
binder,measurement,value
B1,binding result,binds
